Laboratory results: patent US20190161551A1 (Regeneron, published 2019)

How the values were obtained:
[1] = biological target: T1, rat TrkB extracellular domain expressed with a C-terminal myc-myc-hexahistidine tag (rat, UniProt Q63604 32-429); assay: SPR, mAb captured (anti-mFc), 37C
T1 construct: also called rTrkB.mmH; rTRKB.mmH
Method: (§1) Equilibrium dissociation constants (KD values) for TrkB binding to purified anti-TrkB monoclonal antibodies were determined using a real-time surface plasmon resonance biosensor using a Biacore 4000 instrument. All binding studies were performed in 10 mM Hepes pH 7.4, 150 mM NaCl, 3 mM EDTA, and 0.05% v/v Surfactant Tween-20 (HBS-ET running buffer) at 25° C. and 37° C. […] Binding studies were performed on following TrkB reagents; human TrkB extracellular domain expressed with a C-terminal myc-myc-hexahistidine tag (hTRKB.mmH; SEQ ID NO: 76; Accession number NP_001018074.1), mouse TrkB extracellular domain expressed with a C-terminal myc-myc-hexahistidine tag (mTRKB.mmH; SEQ ID NO: 79; Accession number NP_001020245), rat TrkB extracellular domain expressed with a C-terminal myc-myc-hexahistidine tag (rTRKB.mmH; SEQ ID NO: 84; Accession number NP_036863.1), and human TrkB extracellular domain expressed with a C-terminal mouse IgG2a Fc tag (hTrkB-mFc; SEQ ID NO: 77; Accession number NP_001018074.1). […] Kinetic association (kₐ) and dissociation (kd) rate constants were determined by fitting the real-time binding sensorgrams to a 1:1 binding model with mass transport limitation using Scrubber 2.0c curve-fitting software. Binding dissociation equilibrium constants (KD) and dissociative half-lives (t½) were calculated from the kinetic rate constants as: […]

[2] = biological target: T2, human TrkB extracellular domain expressed with a C-terminal mouse IgG2a Fc tag (human); assay: SPR, mAb captured (anti-mFc), 37C
T2 construct: also called hTrkB-mFc; hTrkB.mFc
T2 sequence (chain, as listed by the source limits assumed): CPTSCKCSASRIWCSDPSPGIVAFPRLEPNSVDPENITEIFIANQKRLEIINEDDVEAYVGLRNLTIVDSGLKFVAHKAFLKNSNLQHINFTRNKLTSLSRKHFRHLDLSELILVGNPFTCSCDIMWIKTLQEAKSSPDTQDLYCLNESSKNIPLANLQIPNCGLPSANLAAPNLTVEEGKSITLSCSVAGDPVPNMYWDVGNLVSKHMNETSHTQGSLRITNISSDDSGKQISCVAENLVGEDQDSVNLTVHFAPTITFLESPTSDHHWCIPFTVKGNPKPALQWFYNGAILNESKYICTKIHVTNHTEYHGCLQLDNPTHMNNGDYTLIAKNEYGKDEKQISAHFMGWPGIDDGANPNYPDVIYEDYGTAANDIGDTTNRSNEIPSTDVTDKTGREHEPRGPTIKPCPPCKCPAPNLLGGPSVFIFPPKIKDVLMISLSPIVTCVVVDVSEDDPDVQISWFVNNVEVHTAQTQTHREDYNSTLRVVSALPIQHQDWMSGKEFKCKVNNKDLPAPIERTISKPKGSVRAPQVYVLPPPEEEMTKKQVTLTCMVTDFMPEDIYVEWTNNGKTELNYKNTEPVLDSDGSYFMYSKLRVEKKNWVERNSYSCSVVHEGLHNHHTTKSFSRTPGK
Method: as §1

[3] = biological target: T3, mouse TrkB extracellular domain expressed with a C-terminal myc-myc-hexahistidine tag (mouse, UniProt P15209 32-429); assay: SPR, mAb captured (anti-mFc), 37C
T3 construct: also called mTrkB.mmH; mTRKB.mmH
T3 sequence (P15209 other isoform, or with tags, fused parts or gaps): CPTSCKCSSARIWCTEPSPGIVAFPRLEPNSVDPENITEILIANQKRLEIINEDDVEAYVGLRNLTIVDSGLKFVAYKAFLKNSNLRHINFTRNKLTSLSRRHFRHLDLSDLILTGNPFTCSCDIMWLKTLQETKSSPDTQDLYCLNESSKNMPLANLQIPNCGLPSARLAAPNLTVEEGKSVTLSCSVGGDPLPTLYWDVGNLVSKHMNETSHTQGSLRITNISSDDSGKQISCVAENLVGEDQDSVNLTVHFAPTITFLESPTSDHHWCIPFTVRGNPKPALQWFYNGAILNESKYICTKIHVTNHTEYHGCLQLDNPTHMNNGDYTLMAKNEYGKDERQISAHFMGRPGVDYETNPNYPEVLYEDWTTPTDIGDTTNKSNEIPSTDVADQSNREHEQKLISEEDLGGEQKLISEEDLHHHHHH
Method: as §1

[4] = biological target: T4, human TrkB extracellular domain expressed with a C-terminal myc-myc-hexahistidine tag (human, UniProt Q16620 32-430); assay: SPR, mAb captured (anti-mFc), 37C
T4 construct: also called hTrkB.mmH; hTRKB.mmH
T4 sequence (Q16620 other isoform, or with tags, fused parts or gaps): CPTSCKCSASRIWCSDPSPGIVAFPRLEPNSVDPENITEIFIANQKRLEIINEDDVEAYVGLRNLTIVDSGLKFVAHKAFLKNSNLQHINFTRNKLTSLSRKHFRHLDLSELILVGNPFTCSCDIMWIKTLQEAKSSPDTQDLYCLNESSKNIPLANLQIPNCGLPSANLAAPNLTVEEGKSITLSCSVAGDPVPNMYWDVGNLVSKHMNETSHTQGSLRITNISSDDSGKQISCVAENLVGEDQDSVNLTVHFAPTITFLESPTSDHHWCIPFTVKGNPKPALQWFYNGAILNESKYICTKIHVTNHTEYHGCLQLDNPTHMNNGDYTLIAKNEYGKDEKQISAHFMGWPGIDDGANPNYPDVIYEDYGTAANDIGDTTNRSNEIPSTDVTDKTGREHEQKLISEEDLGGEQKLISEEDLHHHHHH
Method: as §1

[5] = biological target: T1, rat TrkB extracellular domain expressed …; assay: SPR, mAb captured (anti-mFc), 25C
Method: as §1

[6] = biological target: T2, human TrkB extracellular domain …; assay: SPR, mAb captured (anti-mFc), 25C
Method: as §1

[7] = biological target: T3, mouse TrkB extracellular domain …; assay: SPR, mAb captured (anti-mFc), 25C
Method: as §1

[8] = biological target: T4, human TrkB extracellular domain …; assay: SPR, mAb captured (anti-mFc), 25C
Method: as §1

T1 sequence (Q63604 other isoform, or with tags, fused parts or gaps): as the sequence (P15209 other isoform, or with tags, fused parts or gaps) above, with T3M, S9T, A10T, V32I, R63K, S84G, M153T, L185I, S394T counted along it

B1: H1M8037C (antibody, mouse IgG1, kappa, V domains shown)
VH: QVQLVQSGAEVKKPGASVKVSCKASGYTFTNYDIIWVRQAPGQGLEWMGYINPYNDGTKYNEKFKGRVTMTRDTSTSTVYMELSSLRSEDTAVYYCARLLKYRRFRYYAIDYWGQGTTVTVSS
VL: DIQMTQSPSSLSASVGDRVTITCRTSENVYSNLAWYQQKPGKAPKLLIYAASNLQSGVPSRFSGSGSGTDYTFTISSLQPEDIATYYCQHFWGSPFTFGQGTKLEIKR
notes: captured by anti-mFc in SPR; also called Comparator; comparator anti-TrkB monoclonal antibody
B1 showed a Kd [1] of 87.5 nM, a koff [1] of 0.00694 s⁻¹ and a kon [1] of 79300 M⁻¹ s⁻¹. For the same binder, the “t½” value [1] was 1.7 min, the Kd [2] was 1.24 nM and the koff [2] was 0.000292 s⁻¹. For the same binder, the kon [2] was 235000 M⁻¹ s⁻¹, the “t½” value [2] was 40 min and the Kd [3] was 94.1 nM. The koff [3] was 0.00696 s⁻¹, the kon [3] was 74000 M⁻¹ s⁻¹ and the “t½” value [3] was 1.7 min. It also gave a Kd [4] of 135 nM, a koff [4] of 0.00831 s⁻¹ and a kon [4] of 61300 M⁻¹ s⁻¹. For the same binder, the “t½” value [4] was 1.4 min, the Kd [5] was 31 nM and the koff [5] was 0.0016 s⁻¹. The kon [5] was 51600 M⁻¹ s⁻¹, the “t½” value [5] was 7 min and the Kd [6] was 1.09 nM. For the same binder, the koff [6] was 9.55e-05 s⁻¹, the kon [6] was 88000 M⁻¹ s⁻¹ and the “t½” value [6] was 121 min. For the same binder, the Kd [7] was 40.8 nM, the koff [7] was 0.00168 s⁻¹ and the kon [7] was 41200 M⁻¹ s⁻¹. For the same binder, the “t½” value [7] was 7 min, the Kd [8] was 41.3 nM and the koff [8] was 0.00192 s⁻¹. The kon [8] was 46500 M⁻¹ s⁻¹ and the “t½” value [8] was 6 min.
